Measured values published in US20160159929A1 (ABLBIO, published 2016).

B1: MLCK-2 anti-DLL4 antibody (antibody, V domains shown)
VH: EVQLLESGGGLVQPGGSLRLSCAASGFTFSDYAMSWVRQAPGKCLEWVSWIYSGSGNKYYADSVKGRFTISRDNSKNTLYLQMNSLRAEDTAVYYCARADWPFDYWGQGTLVTVSS
VL: QSVLTQPPSASGTPGQRVTISCTGSSSNIGSNDVTWYQQLPGTAPKLLIYADSKRPSGVPDRFSGSKSGTSASLAISGLRSEDEADYYCGTWDYSLSAYVFGCGTKLTVL
notes: also called MLCK2 antibody
B2: Avastin-DLL4 BsAb dual-targeting antibody (bispecific antibody)
heavy: EVQLVESGGGLVQPGGSLRLSCAASGYTFTNYGMNWVRQAPGKGLEWVGWINTYTGEPTYAADFKRRFTFSLDTSKSTAYLQMNSLRAEDTAVYYCAKYPHYYGSSHWYFDVWGQGTLVTVSSASTKGPSVFPLAPSSKSTSGGTAALGCLVKDVFPEPVTVSWNSGALTSGVHTFPAVLQSSGLYSLSSVVTVPSSSLGTQTYICNVNHKPSNTKVDKKVEPKSCDKTHTCPPCPAPELLGGPSYFLFPPKPKDTLMISRTPEVTCVVVDVSHEDPEVKFNWYVDGVEVHNAKTKPREEQYNSTYRVVSVLTVLHQDWLNGKEYKCKVSNKALPAPIEKTISKAKGQPREPQVYTLPPSRHMTKNQVSLTCLVKGFYPSDIAVEWESNGQPENNYKTTPPVLDSDGSFFLYSKLTVDKSRWQQGNVFSCSVMHEALHNHYTQKSLSLSPGKGGGGSGGGGSGGGGSQSVLTQPPSASGTPGQRVTISCTGSSSNIGSNDVTWYQQLPGTAPKLLIYADSKRPSGVPDRFSGSKSGTSASLAISGLRSEDEADYYCGTWDYSLSAYVFGCGTKLTVLGGGGSGGGGSGGGGSGGGGSEVQLLESGGGLVQPGGSLRLSCAASGFTFSDYAMSWVRQAPGKCLEWVSWIYSGSGNKYYADSVKGRFTISRDNSKNTLYLQMNSLRAEDTAVYYCARADWPFDYWGQGTLVTVSS
light: not shown
notes: made in CHO cells; also called VEGF-DLL4 BsAb; dual-targeting protein

Key:
[1] = molecular target: T1, human DLL4 (27-251)-Fc alanine substitution mutant at position 64 (histidine) (human, UniProt Q9NR61 27-251); test: Western blot of mutant DLL4 (27-251)-Fc, detected with HRP anti-human Fab
T1 construct: range 27-251; also called amino acid mutant at position 64; not shown: Fc protein
Procedure: The mutant expression media incubated for 4 days were centrifuged at 1000 rpm at room temperature for 10 minutes to remove the suspended material, and then filtered through a 0.45-μm syringe. For Western blotting analysis, the level of the protein in the mutant expression media were quantified using Octet® system (ForteBio) so that a uniform amount of the mutant would be loaded on SDS gel. Next, 20 μl of each of the mutant expression media was loaded on each of two Novex 4-12% Bis/Tris gels, and subjected to gel electrophoresis using MOPS buffer at 140 V for 50 minutes. As a control, a protein encoding a deletion fragment (amino acid residues 27 to 251) of the extracellular domain of wild-type DLL4 was used. After completion of the electrophoresis, the protein band was transferred to a polyvinylidene difluoride membrane. A total of two processes were performed.

[2] = molecular target: T2, human VEGF (hVEGF, R&D Systems, cat: 293-VE) (human, UniProt P15692-4 27-191); test: ELISA on plate-coated hVEGF, HRP anti-Fab detection, absorbance at 450 nm; the value is column C (midpoint) of the printed 4-P fit; preparation labelled (GS pool) cell line; the Conc axis prints no unit, nM is taken from paragraph 139
T2 construct: Bought protein; also called vascular endothelial growth factor
Procedure: (§1) The binding affinities of the dual-targeting proteins for DLL4 and VEGF were assessed using an ELISA-based solution competition assay. Specifically, a 96-well plate (Nunc-Immuno Plate, NUNC, Rochester, N.Y.) was coated with 50 ng/ml of hVEGF (R&D Systems, cat: 293-VE) and 200 ng/ml of rhDLL4 (R&D Systems, cat: 1506-D4/CF) in an amount of 100 μl per well at 4° C. overnight, and non-specific binding sites were blocked with BSA (bovine serum albumin) for 2 hours. The antibody on the 96-well microtiter plate was diluted 1/5-fold from 128 nM and 64 nM, and 100 μl of each of the dilutions was added to each well of the plate coated with hDLL4 and hVEGF proteins. Then, the plate was incubated for 2 hours, and washed five times with 0.05% tween 20-containing PBS. In order to detect the plate-bound antibody, an HRP-conjugated anti-Fab antibody (Pierce, cat: 31414)) was diluted at a ratio of 1:40,000, transferred to the washed 96-well microtiter plate, and then allowed to react at 37° C. for 1 hour. After the reaction, color development was performed using a colorimetric substrate (3,3′,5,5′-tetramethylbenzidine; Sigma-Aldrich). The enzymatic reaction was stopped using 0.5 mol/l of sulfuric acid. The absorbance at 450 nm was measured using SpectraMax 190 (molecular device).

[3] = molecular target: T3, human DLL4 protein (R&D Systems, Cat: 1506-D4/CF), extracellular domain, residues 27 to 524, C-terminal … (human, UniProt Q9NR61 27-524); test: ELISA on plate-coated rhDLL4, HRP anti-Fab detection, absorbance at 450 nm; the value is column C (midpoint) of the printed 4-P fit; preparation labelled (GS pool) cell line; the Conc axis prints no unit, nM is taken from paragraph 139
T3 construct: range 27-524; Bought protein; also called rhDLL4; hDLL4
Procedure: as §1

[4] = molecular target: T2, human VEGF (hVEGF, R&D Systems, cat: …); test: SPR (Biacore T200), hVEGF immobilised on CM5, antibody as analyte, bivalent binding model
Procedure: (§2) Specifically, Biacore T200 was used in SPR analysis and HBS-EP (10 mM HEPES, pH7.4, 150 mM NaCl, 3 mM EDTA, […] surfactant P20) was used as a running buffer. Surface preparation was done by using a surface preparation target immobilization tool of a wizard program (condition: 25° C., 5 μl/min). Ligands (hVEGF and hDLL4) were diluted in 10 mM sodium acetate buffer (pH 4.5) to final concentrations of 5 μg/ml and 4 μg/ml, respectively, and then immobilized to the surface of CM5 chip by a target immobilization level for each test group. In the immobilization process, two flow cells were included as one set wherein the first and third flow cells were set as a blank, the second flow cell has hVEGF immobilized to the surface thereof, and the fourth flow cell was set as hDLL4 in the present experiment. The first and third flow cells acted as a reference to account for experimental variability due to nonspecific bindings and buffer effects, and in the analysis, subtracted RU values (Fc2−Fc1, and Fc4−Fc3) were used as experimental results. The Avastin-DLL4 BsAb dual-targeting antibody that binds to hVEGF and hDLL4 was diluted in a running buffer to a final molar concentration of 100 nM, serially diluted 1/2 times, and each of the 5 dilutions was analyzed. The sample to be analyzed was prepared to have high purity and high concentration, enough to be diluted more than 100 times at minimum, thereby minimizing buffer effect. All analysis was done by using a wizard program, screening duplicates for each sample and a regeneration step was included in between each analysis step, so that the standard of experiment remains constant.
(§3) The experimental results were analyzed by Biaevaluation software version 4.0. At this time, to determine the RU values (Fc2−Fc1 and Fc4−Fc3), the baseline was set to zero, the value measured at a buffer injection part (analyte, 0 nM) was subtracted from a whole sensorgram. Then, the resulting RU value was analyzed by a Bivalent binding model to determine a binding affinity. The factors to be analyzed include kₐ (M⁻¹s⁻¹), kd (s⁻¹), and KD (M).

[5] = molecular target: T3, human DLL4 protein (R&D Systems, Cat: …); test: SPR (Biacore T200), hDLL4 immobilised on CM5, antibody as analyte, bivalent binding model
Procedure: as §2, §3

[6] = molecular target: T2, human VEGF (hVEGF, R&D Systems, cat: …); test: ELISA on plate-coated hVEGF, HRP anti-Fab detection, absorbance at 450 nm; the value is column C (midpoint) of the printed 4-P fit y = (A - D)/(1 + (x/C)^B) + D; preparation labelled Transient; the Conc axis prints no unit, nM is taken from paragraph 139 (dilutions from 128 nM and 64 nM)
Procedure: as §1

[7] = molecular target: T3, human DLL4 protein (R&D Systems, Cat: …); test: ELISA on plate-coated rhDLL4, HRP anti-Fab detection, absorbance at 450 nm; the value is column C (midpoint) of the printed 4-P fit; preparation labelled Transient; the Conc axis prints no unit, nM is taken from paragraph 139
Procedure: as §1

[8] = molecular target: T3, human DLL4 protein (R&D Systems, Cat: …); test: competition ELISA: antibody premixed with human DLL4-His (600 ng/ml), transferred to plate-coated hNotch-1-hFc, bound DLL4 detected with anti-His HRP
Procedure: The neutralization effect of the Avastin-DLL4 BsAb dual-targeting antibody was assessed using an ELISA-based solution competition assay. Specifically, each well of a 96-well microtiter plate (Nunc-Immuno Plate, NUNC, Rochester, N.Y.) was coated with 100 μl of 500 ng/ml of hNotch-1-hFc protein (R&D Systems) (diluted in PBS) at 4° C. overnight, and then treated with BSA for 2 hours to block non-specific binding sites.
The Avastin-DLL4 BsAb dual-targeting antibody (purified protein) on the 96-well microtiter plate was premixed with serial dilutions of antigen protein (human DLL4-His, 600 ng/ml) at an […] concentration ranging from 0 nM to 140 nM. The antigen/antibody mixture was incubated for 30 minutes, and then transferred to a microtiter plate precoated with the DLL4 receptor hNotch-1 protein (50 ng/well) in order to measure free […]. Then, the plate was incubated for 2 hours and washed five times with 0.05% tween 20-containing PBS. In order to detect the DLL4 antigen bound to the plate, an HRP-conjugated His […] antibody reagent (Roche applied science) was diluted at a ratio of 1:800, and the washed microtiter plate was treated with the diluted antibody reagent, and then allowed to react at 37° C. for 1 hour. […]

T2 sequence (P15692 other isoform, or with tags, fused parts or gaps limits assumed): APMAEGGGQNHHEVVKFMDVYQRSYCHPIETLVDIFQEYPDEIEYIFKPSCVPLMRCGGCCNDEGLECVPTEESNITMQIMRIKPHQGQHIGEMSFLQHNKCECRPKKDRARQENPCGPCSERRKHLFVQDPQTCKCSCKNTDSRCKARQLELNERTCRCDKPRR
T3 sequence (Q9NR61 other isoform, or with tags, fused parts or gaps limits assumed): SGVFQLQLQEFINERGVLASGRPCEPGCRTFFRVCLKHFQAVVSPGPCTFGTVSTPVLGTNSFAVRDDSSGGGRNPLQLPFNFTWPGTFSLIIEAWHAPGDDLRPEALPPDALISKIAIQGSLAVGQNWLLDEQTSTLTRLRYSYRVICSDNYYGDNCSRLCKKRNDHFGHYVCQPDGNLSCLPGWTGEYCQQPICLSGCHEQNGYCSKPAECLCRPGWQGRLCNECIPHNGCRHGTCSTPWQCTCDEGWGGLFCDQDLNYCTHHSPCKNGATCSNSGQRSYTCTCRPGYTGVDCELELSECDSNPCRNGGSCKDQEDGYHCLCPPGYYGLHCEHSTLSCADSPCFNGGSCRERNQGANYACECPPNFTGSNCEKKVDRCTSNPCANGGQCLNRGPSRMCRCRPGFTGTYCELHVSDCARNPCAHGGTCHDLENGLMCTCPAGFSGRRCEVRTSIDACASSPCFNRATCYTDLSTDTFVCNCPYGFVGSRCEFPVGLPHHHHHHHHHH
T1 sequence (Q9NR61 other isoform, or with tags, fused parts or gaps mutant limits assumed): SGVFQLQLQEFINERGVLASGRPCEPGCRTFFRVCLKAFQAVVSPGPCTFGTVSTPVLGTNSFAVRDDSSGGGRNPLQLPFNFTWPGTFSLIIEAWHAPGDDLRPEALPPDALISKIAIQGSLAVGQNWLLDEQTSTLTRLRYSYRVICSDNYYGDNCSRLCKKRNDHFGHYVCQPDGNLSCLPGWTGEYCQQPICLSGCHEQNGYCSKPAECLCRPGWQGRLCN

binding result [1]	EC50 [2] [nM]	EC50 [3] [nM]	Kd [4] [nM]	koff [4] [s⁻¹]	kon [4] [M⁻¹ s⁻¹]	Kd [5] [nM]	koff [5] [s⁻¹]	kon [5] [M⁻¹ s⁻¹]	EC50 [6] [nM]	EC50 [7] [nM]	IC50 [8] [nM]	Binder
no binding (tested: 1 µg/mL)	–	–	–	–	–	–	–	–	–	–	–	B1
–	0.43	0.261	0.126	1.68e-06	13400	30.2	0.000587	19400	0.337	0.264	1.12	B2
